B1: Chaperone protein DnaJ (Escherichia coli (strain K12)), P08622 (parent)
chain: MAKQDYYEILGVSKTAEEREIRKAYKRLAMKYHPDRNQGDKEAEAKFKEIKEAYEVLTDSQKRAAYDQYGHAAFEQGGMGGGGFGGGADFSDIFGDVFGDIFGGGRGRQRAARGADLRYNMELTLEEAVRGVTKEIRIPTLEECDVCHGSGAKPGTQPQTCPTCHGSGQVQMRQGFFAVQQTCPHCQGRGTLIKDPCNKCHGHGRVERSKTLSVKIPAGVDTGDRIRLAGEGEAGEHGAPAGDLYVQVQVKQHPIFEREGNNLYCEVPINFAMAALGGEIEVPTLDGRVKLKVPGETQTGKLFRMRGKGVKSVRGGAQGDLLCRVVVETPVGLNERQKQLLQELQESFGGPTGEHNSPRSKSFFDGVKKFFDDLTR

Variants of: B1
Conditions: with dnak_ecoli dnaK

Row | effect of a mutation on the interaction | Variant
1 | decreasing interaction | MAKQDYYEILGVSKTAEEREIRKAYKRLAMKYHPDRNQGDKEAEAKFKEIKEAYEVLTDSQKAAAYDQYGHAAFEQGGMGGGGFGGGADFSDIFGDVFGDIFGGGRGRQRAARGADLRYNMELTLEEAVRGVTKEIRIPTLEECDVCHGSGAKPGTQPQTCPTCHGSGQVQMRQGFFAVQQTCPHCQGRGTLIKDPCNKCHGHGRVERSKTLSVKIPAGVDTGDRIRLAGEGEAGEHGAPAGDLYVQVQVKQHPIFEREGNNLYCEVPINFAMAALGGEIEVPTLDGRVKLKVPGETQTGKLFRMRGKGVKSVRGGAQGDLLCRVVVETPVGLNERQKQLLQELQESFGGPTGEHNSPRSKSFFDGVKKFFDDLTR [R63A]
2 | decreasing interaction | MAKQDYYEILGVSKTAEEREIRKAYKRLAMKYHPDRNQGDKEAEAKFKEIKEAYEVLTDSQARAAYDQYGHAAFEQGGMGGGGFGGGADFSDIFGDVFGDIFGGGRGRQRAARGADLRYNMELTLEEAVRGVTKEIRIPTLEECDVCHGSGAKPGTQPQTCPTCHGSGQVQMRQGFFAVQQTCPHCQGRGTLIKDPCNKCHGHGRVERSKTLSVKIPAGVDTGDRIRLAGEGEAGEHGAPAGDLYVQVQVKQHPIFEREGNNLYCEVPINFAMAALGGEIEVPTLDGRVKLKVPGETQTGKLFRMRGKGVKSVRGGAQGDLLCRVVVETPVGLNERQKQLLQELQESFGGPTGEHNSPRSKSFFDGVKKFFDDLTR [K62A]
3 | decreasing interaction | MAKQDYYEILGVSKTAEEREIRKAYKRLAMKYHPDRNQGDKEAEAKFKEIKEAYEVLTDSQAAAAYDQYGHAAFEQGGMGGGGFGGGADFSDIFGDVFGDIFGGGRGRQRAARGADLRYNMELTLEEAVRGVTKEIRIPTLEECDVCHGSGAKPGTQPQTCPTCHGSGQVQMRQGFFAVQQTCPHCQGRGTLIKDPCNKCHGHGRVERSKTLSVKIPAGVDTGDRIRLAGEGEAGEHGAPAGDLYVQVQVKQHPIFEREGNNLYCEVPINFAMAALGGEIEVPTLDGRVKLKVPGETQTGKLFRMRGKGVKSVRGGAQGDLLCRVVVETPVGLNERQKQLLQELQESFGGPTGEHNSPRSKSFFDGVKKFFDDLTR [K62A;R63A]

From IntAct's records for PubMed 10521435
